Measurements: PMC5587793

T1: His-GapR (Caulobacter crescentus (NA1000?)) (UniProt B8H4R9)
T1 sequence: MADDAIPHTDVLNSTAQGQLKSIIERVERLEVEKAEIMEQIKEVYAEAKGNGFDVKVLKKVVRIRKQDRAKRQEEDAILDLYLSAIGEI

T2: His-GapR (Caulobacter crescentus, UniProt B8H4R9 1-89)
T2 sequence: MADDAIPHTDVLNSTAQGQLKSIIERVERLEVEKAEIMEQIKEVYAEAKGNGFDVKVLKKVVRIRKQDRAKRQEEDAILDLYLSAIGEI


Assays:
[1] = target: T1, His-GapR (Caulobacter crescentus (NA1000?)); test: EMSA
His-GapR = target: T2, His-GapR; test: EMSA

Row | Molecule | Kd [1] | binding result (His-GapR)
1 | Cori DNA (EMSA of Figure S6) | 10 nM | 
2 | CoriUP oligonucleotide (dsDNA, 3 bp up-replication mutation) DNA 1: GCAGGGCAAGTGGTTAAGCATATGTTAACGGATGATCCACAGG DNA 2: CCTGTGGATCATCCGTTAACATATGCTTAACCACTTGCCCTGC |  | binds
